Assay [1] concerns the target T1, human calcitonin receptor (human, UniProt P30988 25-474).
T1 sequence (looked up): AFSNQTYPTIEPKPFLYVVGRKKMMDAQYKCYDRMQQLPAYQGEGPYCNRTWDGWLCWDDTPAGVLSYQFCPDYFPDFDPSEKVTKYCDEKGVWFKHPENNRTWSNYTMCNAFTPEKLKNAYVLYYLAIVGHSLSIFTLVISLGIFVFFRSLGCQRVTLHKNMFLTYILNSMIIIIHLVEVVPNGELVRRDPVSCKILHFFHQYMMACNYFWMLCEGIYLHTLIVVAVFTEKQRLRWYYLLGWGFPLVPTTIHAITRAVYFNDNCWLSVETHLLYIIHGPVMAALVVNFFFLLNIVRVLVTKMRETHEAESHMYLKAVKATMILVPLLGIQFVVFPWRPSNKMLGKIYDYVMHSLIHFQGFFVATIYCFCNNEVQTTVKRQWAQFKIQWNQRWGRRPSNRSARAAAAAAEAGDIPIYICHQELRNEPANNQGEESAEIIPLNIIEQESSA
The assay is described as follows: cell-based or functional assay.

In assay [2] the target is T2, human amylin receptor (amylin 3(a) receptor: human calcitonin receptor with RAMP-3) (human, UniProt P30988 25-474; O60896 24-148, limits assumed).
T2 construct: whole, on cells; Whole cells in the luciferase assay (Assay II a); also called hAmylin-R; hAmylinR
T2 sequence (looked up) 1: T1 sequence (looked up)
T2 sequence (looked up) 2: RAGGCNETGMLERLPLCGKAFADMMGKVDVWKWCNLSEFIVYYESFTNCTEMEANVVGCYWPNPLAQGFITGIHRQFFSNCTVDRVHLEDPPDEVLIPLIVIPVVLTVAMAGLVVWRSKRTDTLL
The assay is described as follows: SPA competition binding on membranes of BHK cells with human calcitonin receptor + RAMP-3; displacement of 125I-rat amylin (Assay V). As to the method:
The binding assay was performed using scintillation proximity assay (SPA) beads (RPNQ0001) from PerkinElmer and cell membranes from the Amylin 3(a)/CRE-luc cells (as described in Assay (II)) were used. Membranes were prepared in the following way; the cells were rinsed with PBS and incubated with Versene for approximately 5 min before harvesting. The cells were flushed with PBS and the cell-suspension was centrifuged for 5 min at 1000 rpm. Cells were homogenized (ultrathurrax) in a buffer containing 20 mM Na-HEPES and 10 mM EDTA (pH 7.4) and centrifuged at 20.000 rpm for 15 min. The resulting pellet was resuspended, homogenized and centrifuged (20.000 rpm, 15 min) in a buffer containing 20 mM Na-HEPES and 0.1 mM EDTA (pH 7.4, buffer 2). The resulting pellet was resuspended in buffer 2 and protein concentration was measured (BCA protein Assay, Pierce). The homogenate was kept cold during the whole procedure. The membranes were kept at −80° C. until use. The assay was performed in a 384 well Optiplate (PerkinElmer) in a total volume of 40 ul. Membranes were mixed with SPA beads. Final concentration of membranes 35 ng/μL final and SPA beads was 0.05 mg/well. Test-compounds were dissolved in DMSO and further diluted in assay buffer (50 mM Hepes, pH 7.4, 1 mM CaCl2, 5 mM MgCl₂, 0.1% OA and 0.02% Tween20). […] The final mixture was incubated with shaking at 400 rpm for 120 min at 25° C. prior to centrifugation (1500 rpm, 10 min). Samples were analyzed on TopCounter™ (Packard). The IC₅₀ was calculated using (one site binding competition analysis) GraphPad Prism5 as a measure of receptor affinity.
On the technique in general: Displacement assays read how much labelled ligand stays bound in the presence of the test substance.

Numbered stars: 1 amine (or outer) side, 2 acyl side, 3 side chain; on linkers, the order of the positions; unused ones are H or OH. Bridge positions count the residues as written; N and C are the ends. Side chains are listed from the residue outwards. Ends that are not written are not given here. * marks the point of attachment. C20 diacid = O=C(O)CCCCCCCCCCCCCCCCCCC(=O)*; γGlu = O=C(O)[C@H](CCC(=O)[*:2])N[*:1]; C14 diacid = O=C(O)CCCCCCCCCCCCC(=O)*; AEEA = NCCOCCOCC(=O)O

B1: N^ε1-[(4S)-4-carboxy-4-[[(4S)-4-carboxy-4-(19-carboxynonadecanoylamino)butanoyl]amino]butanoyl]-[Glu14,Arg17,Pro21,Pro27,Pro34,Glu35]-h-amylin (peptide)
peptide: K([γGlu-γGlu-C20 diacid])CNTATCATQRLAEFLRHSSPNFGAIPSSTNVGPETY-NH2
modifications: disulfide 2-7; N-terminus assumed
SMILES: CC[C@H](C)[C@H](NC(=O)[C@H](C)NC(=O)CNC(=O)[C@H](Cc1ccccc1)NC(=O)[C@H](CC(N)=O)NC(=O)[C@@H]1CCCN1C(=O)[C@H](CO)NC(=O)[C@H](CO)NC(=O)[C@H](Cc1c[nH]cn1)NC(=O)[C@H](CCCNC(=N)N)NC(=O)[C@H](CC(C)C)NC(=O)[C@H](Cc1ccccc1)NC(=O)[C@H](CCC(=O)O)NC(=O)[C@H](C)NC(=O)[C@H](CC(C)C)NC(=O)[C@H](CCCNC(=N)N)NC(=O)[C@H](CCC(N)=O)NC(=O)[C@@H](NC(=O)[C@H](C)NC(=O)[C@@H]1CSSC[C@H](NC(=O)[C@@H](N)CCCCNC(=O)CC[C@H](NC(=O)CC[C@H](NC(=O)CCCCCCCCCCCCCCCCCCC(=O)O)C(=O)O)C(=O)O)C(=O)N[C@@H](CC(N)=O)C(=O)N[C@@H]([C@@H](C)O)C(=O)N[C@@H](C)C(=O)N[C@@H]([C@@H](C)O)C(=O)N1)[C@@H](C)O)C(=O)N1CCC[C@H]1C(=O)N[C@@H](CO)C(=O)N[C@@H](CO)C(=O)N[C@H](C(=O)N[C@@H](CC(N)=O)C(=O)N[C@H](C(=O)NCC(=O)N1CCC[C@H]1C(=O)N[C@@H](CCC(=O)O)C(=O)N[C@H](C(=O)N[C@@H](Cc1ccc(O)cc1)C(N)=O)[C@@H](C)O)C(C)C)[C@@H](C)O
notes: synthetic peptide amide
Consider B1, for which the “hCTR funct. EC50 (pM)” value in assay [1] amounted to 2360 pM.

B2: N^ε1-[2-[2-[2-[[2-[2-[2-[[(4S)-4-carboxy-4-(19-carboxynonadecanoylamino)butanoyl]amino]ethoxy]ethoxy]acetyl]amino]ethoxy]ethoxy]acetyl]-[Arg17,Pro21,Pro27,Pro34 … (peptide)
peptide: K([AEEA-AEEA-γGlu-C20 diacid])CNTATCATQRLANFLRHSSPNFGAIPSSTNVGPNTY-NH2
modifications: disulfide 2-7; N-terminus assumed
SMILES: CC[C@H](C)[C@H](NC(=O)[C@H](C)NC(=O)CNC(=O)[C@H](Cc1ccccc1)NC(=O)[C@H](CC(N)=O)NC(=O)[C@@H]1CCCN1C(=O)[C@H](CO)NC(=O)[C@H](CO)NC(=O)[C@H](Cc1c[nH]cn1)NC(=O)[C@H](CCCNC(=N)N)NC(=O)[C@H](CC(C)C)NC(=O)[C@H](Cc1ccccc1)NC(=O)[C@H](CC(N)=O)NC(=O)[C@H](C)NC(=O)[C@H](CC(C)C)NC(=O)[C@H](CCCNC(=N)N)NC(=O)[C@H](CCC(N)=O)NC(=O)[C@@H](NC(=O)[C@H](C)NC(=O)[C@@H]1CSSC[C@H](NC(=O)[C@@H](N)CCCCNC(=O)COCCOCCNC(=O)COCCOCCNC(=O)CC[C@H](NC(=O)CCCCCCCCCCCCCCCCCCC(=O)O)C(=O)O)C(=O)N[C@@H](CC(N)=O)C(=O)N[C@@H]([C@@H](C)O)C(=O)N[C@@H](C)C(=O)N[C@@H]([C@@H](C)O)C(=O)N1)[C@@H](C)O)C(=O)N1CCC[C@H]1C(=O)N[C@@H](CO)C(=O)N[C@@H](CO)C(=O)N[C@H](C(=O)N[C@@H](CC(N)=O)C(=O)N[C@H](C(=O)NCC(=O)N1CCC[C@H]1C(=O)N[C@@H](CC(N)=O)C(=O)N[C@H](C(=O)N[C@@H](Cc1ccc(O)cc1)C(N)=O)[C@@H](C)O)C(C)C)[C@@H](C)O
notes: synthetic peptide amide; also called compound 98
B2: the “hCTR funct. EC50 (pM)” value in assay [1] is 1630 pM.

B3: N^ε1-[(4S)-4-carboxy-4-(13-carboxytridecanoylamino)butanoyl]-[Arg17,Pro21,Pro27,His34]-h-amylin (peptide)
peptide: K([γGlu-C14 diacid])CNTATCATQRLANFLRHSSPNFGAIPSSTNVGHNTY-NH2
modifications: disulfide 2-7; N-terminus assumed
SMILES: CC[C@H](C)[C@H](NC(=O)[C@H](C)NC(=O)CNC(=O)[C@H](Cc1ccccc1)NC(=O)[C@H](CC(N)=O)NC(=O)[C@@H]1CCCN1C(=O)[C@H](CO)NC(=O)[C@H](CO)NC(=O)[C@H](Cc1c[nH]cn1)NC(=O)[C@H](CCCNC(=N)N)NC(=O)[C@H](CC(C)C)NC(=O)[C@H](Cc1ccccc1)NC(=O)[C@H](CC(N)=O)NC(=O)[C@H](C)NC(=O)[C@H](CC(C)C)NC(=O)[C@H](CCCNC(=N)N)NC(=O)[C@H](CCC(N)=O)NC(=O)[C@@H](NC(=O)[C@H](C)NC(=O)[C@@H]1CSSC[C@H](NC(=O)[C@@H](N)CCCCNC(=O)CC[C@H](NC(=O)CCCCCCCCCCCCC(=O)O)C(=O)O)C(=O)N[C@@H](CC(N)=O)C(=O)N[C@@H]([C@@H](C)O)C(=O)N[C@@H](C)C(=O)N[C@@H]([C@@H](C)O)C(=O)N1)[C@@H](C)O)C(=O)N1CCC[C@H]1C(=O)N[C@@H](CO)C(=O)N[C@@H](CO)C(=O)N[C@H](C(=O)N[C@@H](CC(N)=O)C(=O)N[C@H](C(=O)NCC(=O)N[C@@H](Cc1c[nH]cn1)C(=O)N[C@@H](CC(N)=O)C(=O)N[C@H](C(=O)N[C@@H](Cc1ccc(O)cc1)C(N)=O)[C@@H](C)O)C(C)C)[C@@H](C)O
notes: synthetic peptide amide
On to B3, for which the “hCTR funct. EC50 (pM)” value in assay [1] amounted to 1090 pM.

B4: N^ε1-[2-[2-[2-[[2-[2-[2-[[(4S)-4-carboxy-4-(19-carboxynonadecanoylamino)butanoyl]amino]ethoxy]ethoxy]acetyl]amino]ethoxy]ethoxy]acetyl]-[Arg17,Pro21,Pro27,His34 … (peptide)
peptide: K([AEEA-AEEA-γGlu-C20 diacid])CNTATCATQRLANFLRHSSPNFGAIPSSTNVGHNTY-NH2
modifications: disulfide 2-7; N-terminus assumed
SMILES: CC[C@H](C)[C@H](NC(=O)[C@H](C)NC(=O)CNC(=O)[C@H](Cc1ccccc1)NC(=O)[C@H](CC(N)=O)NC(=O)[C@@H]1CCCN1C(=O)[C@H](CO)NC(=O)[C@H](CO)NC(=O)[C@H](Cc1c[nH]cn1)NC(=O)[C@H](CCCNC(=N)N)NC(=O)[C@H](CC(C)C)NC(=O)[C@H](Cc1ccccc1)NC(=O)[C@H](CC(N)=O)NC(=O)[C@H](C)NC(=O)[C@H](CC(C)C)NC(=O)[C@H](CCCNC(=N)N)NC(=O)[C@H](CCC(N)=O)NC(=O)[C@@H](NC(=O)[C@H](C)NC(=O)[C@@H]1CSSC[C@H](NC(=O)[C@@H](N)CCCCNC(=O)COCCOCCNC(=O)COCCOCCNC(=O)CC[C@H](NC(=O)CCCCCCCCCCCCCCCCCCC(=O)O)C(=O)O)C(=O)N[C@@H](CC(N)=O)C(=O)N[C@@H]([C@@H](C)O)C(=O)N[C@@H](C)C(=O)N[C@@H]([C@@H](C)O)C(=O)N1)[C@@H](C)O)C(=O)N1CCC[C@H]1C(=O)N[C@@H](CO)C(=O)N[C@@H](CO)C(=O)N[C@H](C(=O)N[C@@H](CC(N)=O)C(=O)N[C@H](C(=O)NCC(=O)N[C@@H](Cc1c[nH]cn1)C(=O)N[C@@H](CC(N)=O)C(=O)N[C@H](C(=O)N[C@@H](Cc1ccc(O)cc1)C(N)=O)[C@@H](C)O)C(C)C)[C@@H](C)O
notes: synthetic peptide amide; also called compound 97
Turning to B4, the “hCTR funct. EC50 (pM)” value in assay [1] amounted to 11800 pM.

B5: N^ε1-[2-[2-[2-[[(4S)-4-carboxy-4-(19-carboxynonadecanoylamino)butanoyl]amino]ethoxy]ethoxy]acetyl]-[Arg17,Pro21,Pro27,Arg35]-h-amylin (peptide)
peptide: K([AEEA-γGlu-C20 diacid])CNTATCATQRLANFLRHSSPNFGAIPSSTNVGSRTY-NH2
modifications: disulfide 2-7; N-terminus assumed
SMILES: CC[C@H](C)[C@H](NC(=O)[C@H](C)NC(=O)CNC(=O)[C@H](Cc1ccccc1)NC(=O)[C@H](CC(N)=O)NC(=O)[C@@H]1CCCN1C(=O)[C@H](CO)NC(=O)[C@H](CO)NC(=O)[C@H](Cc1c[nH]cn1)NC(=O)[C@H](CCCNC(=N)N)NC(=O)[C@H](CC(C)C)NC(=O)[C@H](Cc1ccccc1)NC(=O)[C@H](CC(N)=O)NC(=O)[C@H](C)NC(=O)[C@H](CC(C)C)NC(=O)[C@H](CCCNC(=N)N)NC(=O)[C@H](CCC(N)=O)NC(=O)[C@@H](NC(=O)[C@H](C)NC(=O)[C@@H]1CSSC[C@H](NC(=O)[C@@H](N)CCCCNC(=O)COCCOCCNC(=O)CC[C@H](NC(=O)CCCCCCCCCCCCCCCCCCC(=O)O)C(=O)O)C(=O)N[C@@H](CC(N)=O)C(=O)N[C@@H]([C@@H](C)O)C(=O)N[C@@H](C)C(=O)N[C@@H]([C@@H](C)O)C(=O)N1)[C@@H](C)O)C(=O)N1CCC[C@H]1C(=O)N[C@@H](CO)C(=O)N[C@@H](CO)C(=O)N[C@H](C(=O)N[C@@H](CC(N)=O)C(=O)N[C@H](C(=O)NCC(=O)N[C@@H](CO)C(=O)N[C@@H](CCCNC(=N)N)C(=O)N[C@H](C(=O)N[C@@H](Cc1ccc(O)cc1)C(N)=O)[C@@H](C)O)C(C)C)[C@@H](C)O
notes: also called compound 38
Consider B5, for which the half-inhibitory concentration (IC50) in assay [2] was 0.249 nM.

By IC50 is commonly meant the concentration at which inhibition is half-maximal.

Source of the values: patent US20140087995A1 (published 2014).
